We go through four molecules from article PMC3695027, “Structural Insights into the Effector – Immunity System Tae4/Tai4 from Salmonella typhimurium” (PLoS ONE, 2013).

The target in data set [1] is Tae4-ATTO 488 (fluorescently labelled Tae4 from Salmonella typhimurium) (Salmonella typhimurium). Description: stopped-flow fluorescence kinetics; dissociation: preassembled Tae4-ATTO 488/Tai4 complex (0.1 µM wild type or 0.2 µM mutant) chased with 1 or 2 µM unlabelled Tae4; apparent dissociation rate constant; limit for the wild type from simulated traces; KD calculated as koff/kon with the kon of the direct mixing.

Data set [2] has the same target. The data set is described as above. This is another data set of the same source.
Data set [3] has the same target. Description: stopped-flow fluorescence kinetics; association by direct mixing: 0.1 µM Tae4-ATTO 488 with 0.3-1.5 µM Tai4; 293 K; 50 mM MES pH 6.5, 200 mM NaCl; kobs against Tai4 concentration, kon from the slope.
The target of data set [4] is T1, Tae4 effector protein from Salmonella typhimurium (full-length, hexahistidine-tagged) (Salmonella typhimurium, UniProt Q93IS4 1-161).
T1 construct: Tae4, Salmonella typhimurium, NP_459275.1, full-length orf; Asn2 to the C-terminal Pro161 modelled in the crystal structure; The single-expression construct was cut out of the bicistronic construct (NcoI/MfeI), so the Tae4 chain is the same in both; No tag removal is described; The crystal for PDB 4J30 held the selenomethionine-substituted complex; also called type-6-secretion amidase effector 4; …
T1 sequence: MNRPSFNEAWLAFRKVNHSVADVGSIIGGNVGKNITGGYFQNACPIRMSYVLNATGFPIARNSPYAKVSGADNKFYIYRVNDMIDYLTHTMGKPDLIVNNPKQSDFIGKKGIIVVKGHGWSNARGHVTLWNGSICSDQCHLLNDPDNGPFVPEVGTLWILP
Description: stopped-flow fluorescence kinetics; association by intrinsic tryptophan fluorescence (excitation 280 nm): 1.8 µM unlabelled Tae4 with 2.3-9.9 µM wild-type Tai4; 50 mM MES pH 6.5, 200 mM NaCl; data not shown. Particulars: both partners purified.

Data set [5] addresses T2, Tae4 effector protein from Salmonella typhimurium (full-length, hexahistidine-tagged) (Salmonella typhimurium, UniProt Q93IS4 1-161).
T2 chain: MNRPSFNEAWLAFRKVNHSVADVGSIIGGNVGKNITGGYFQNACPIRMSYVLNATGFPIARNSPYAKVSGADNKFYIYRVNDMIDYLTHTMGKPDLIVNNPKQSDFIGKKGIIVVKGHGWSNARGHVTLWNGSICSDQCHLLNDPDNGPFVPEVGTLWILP
Description: ITC. (Isothermal titration calorimetry measures the heat released or taken up as one component is titrated into another.)

Data set [6] addresses T1, Tae4 effector protein from Salmonella …. Description: ITC; 29.5 µM wild-type Tai4 titrated into 2.17 µM Tae4 in the cell; 293 K; 50 mM MES pH 6.5, 200 mM NaCl; single-site binding model. Conditions: both partners purified.
Data set [7] concerns the molecule itself. Description: cross-linking; glutaraldehyde, 0.25 µg/µl protein in 20 mM HEPES pH 7.5, 37°C, aliquots 0 to 60 min, Coomassie-stained SDS-PAGE.
Data set [8] deals with T1, Tae4 effector protein from Salmonella …. Description: SEC-MALS; Superdex200 10/300 GL with multiangle light scattering detector; 50 mM Tris-HCl pH 8.0, 200 mM NaCl; 100 µM protein, 40 µl applied, 0.5 ml/min. Particulars: both partners purified.

Where two headings read alike, the source gives them in different places.

Broadly, the koff is the first-order rate constant of dissociation. Usually kon stands for the rate constant with which the complex forms. Lower therefore signals slow association. As for “Tai4 immunity protein from Salmonella typhimurium, wild type, periplasmic (C-terminal hexahistidine tag) (from UniProt Q8ZRL5 27-127) (natural protein)”, the koff in data set [1] is 7e-05 to 0.0007 s⁻¹. Further, in data set [2], the Kd is < 0.28 nM and the koff is < 0.0007 s⁻¹. The same molecule had a kon in data set [3] of 2.48e+06 M⁻¹ s⁻¹.

“Tai4(E71A_S98A) variant of the immunity protein from Salmonella typhimurium (C-terminal hexahistidine tag) (natural protein)”: in data set [2], the Kd was 255 nM and the koff was 0.716 s⁻¹. Moreover, in data set [3], the kon was 2.81e+06 M⁻¹ s⁻¹.

B1: Tai4 immunity protein from Salmonella typhimurium, wild type, periplasmic (C-terminal hexahistidine tag) (natural protein)
chain: QEALTTQYSQSELLKNWALSHCLALVYKDDVVKNDARATASAYLEYGKQSVEIYHEIDEIAKKYSGLKYNGSISSDFNTMKCIDFIHDRELNELIKRRVEK
notes: Tai4, Salmonella typhimurium, NP_459276.1; Dimer in solution (cross-linking, static light scattering); the calculated dimer mass of 25.95 kDa fits the cut, tagged protein; also called Tai4wt; wild-type Tai4
As a reminder, the stoichiometry N is the number of molecules, sites or subunits per partner or assembly. In data set [4], B1 displayed a kon of 2.57e+06 ± 233000 M⁻¹ s⁻¹. Further, the Kd in data set [5] is 1.28 nM; in data set [6], < 1 nM. Moreover, the “stoichiometry N” value in data set [7] was determined as 2.

B2: Tai4 immunity protein from Salmonella typhimurium, untagged, co-expressed with Tae4 (as in the Tae4/Tai4 complex) (natural protein)
chain: QEALTTQYSQSELLKNWALSHCLALVYKDDVVKNDARATASAYLEYGKQSVEIYHEIDEIAKKYSGLKYNGSISSDFNTMKCIDFIHDRELNELIKRRVEK
notes: Tai4, Salmonella typhimurium, NP_459276.1; Gln27 to Lys127 modelled in the crystal structure; Homodimer at the centre of the Tae4_2/Tai4_2 heterotetramer; The crystal for PDB 4J30 held the selenomethionine-substituted complex
Turning to B2, the “stoichiometry N” value in data set [8] is 1 Tai4 per Tae4 (2:2).
